# According to article PMC4755594, “Structure of a Bacterial Virus DNA-Injection Protein Complex Reveals a Decameric Assembly with a Constricted Molecular Channel” (PLoS ONE, 2016):
# B1: bacteriophage Sf6 DNA-injection protein gp12 (natural protein, UniProt Q716G3 1-431, looked up)
# chain: MATWQGSNGGLLAGIGGVNSNAPSVNDIGNTLQLIRQNNDIERSGANNVGLTALQGLSGIAGVFQQEKQARRQKEFQQAYANAYASGDRGALRQLATQYPDQIESVRKGMGFIDEDQRNSIGTLAAGARLAASSPEAMQSWLQNNANELARVGVDPNNVAQMYQQNPSGFGEFVDHLGMAALGPIDYFNVQDKMAGREIDRGRLAETIRSNKAGEALTVRGQDIQIRGQNISAQNAALSREIQRAELQEKALDRQIARESNQLKLEELKQKQADVRQKADIARADRQAAAQGAVDTFSTALDSLNEIEQSPGLSKAVGIRSAFPTVPGSDAANFEARLDTFKAQTFLPMVQSLKGMGALSDAEGKKLSDAVGALSPKMSEKAFRDSIGKIRNQLESKLSTVKKQFDYQEPVQNTPVQQPTTGSNFSSLWGD
# notes: gp12 (product of gene 12) of bacteriophage Sf6, 431 residues, 46.5 kDa; ortholog of phage P22 gp20; The same preparation gave a monomer peak and a decamer peak on SEC; the assembled form has 10 copies of the chain; also called Sf6 gp12; gp12 monomer
# Target: the molecule itself
# Experiment: SEC; refolded gp12 after Ni-NTA on Hiload Superdex 200; decamer peak at 54.6 ml, monomer peak at 73.6 ml; pooled decamer fractions run again
protein,measurement,value
B1,stoichiometry N,10
